Test results taken from the supplement of paper PMC12042874.
± gives the uncertainty stated by the source.

Test: amyloid nucleation score (Sup35N fusion, yeast selection) (log enrichment); library NNK1; higher = more nucleation; inactive = no reads after selection
How it was run: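 Sup35N fusions to peptides of 20 random codons were expressed in psi-negative yeast, induced 24 hours with 100 μM copper sulfate, and grown 7 days at 30°C on medium lacking adenine and uracil. Input and output plasmid inserts were sequenced by Illumina. The nucleation score is the DiMSum log enrichment of output over input reads, centred on the mode score of non-aggregating sequences. Sequences with under 100 input reads were excluded.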

| Substance | amyloid nucleation score |
| --- | --- |
| AHFHPLEVRFTIHDFLADNL | -0.215 ± 0.5 |
| AIASVLAN | -0.482 ± 0.3 |
| AIDRRLYMGYSSWNEQDCEV | inactive |
| AIGCVWVRNRVAIVGERVAK | 2.08 ± 0.23 |
| AIIDMDMSFRSGGCTNGVDV | 1.06 ± 0.32 |
| AIKCHL | -0.721 ± 1.9 |
| AINSSFWSVGLILEIDMYSY | -0.148 ± 0.45 |
| AIQYILEQLEQSRRWGISVH | inactive |
| AISTCQKRVYFWVQSGFVT | -0.072 ± 0.2 |
| AIVELLSWSQVTCALWGSIT | 0.344 ± 0.69 |
| AIYMLHRNGGGGVCEAEAVR | -0.38 ± 0.69 |
| AIYVRW | 1.08 ± 0.22 |
| AKCAVASAIKVQQDDADGPD | -0.012 ± 0.52 |
| AKLYMCSCINCTASHEITYF | 8.419 ± 0.045 |
| AKRLWIQLRGVHSRMLTGYY | -0.244 ± 1.5 |
| AKSQYMVVVYMPIYLWQCYI | 4.01 ± 0.14 |
| ALAWWVLFL | 0.132 ± 1 |
| ALCDYWDIA | inactive |
| ALETFNGQVMSPSSRLRIDR | -1.07 ± 0.88 |
| ALFCDDEYRRDYW | 0.192 ± 0.31 |
| ALFCSTIRNQIGFIRHPESF | 0.026 ± 0.58 |
| ALFESRPYTLSRERDKL | -0.302 ± 0.36 |
| ALMNNGWYILSNFPYCMVIY | 5.4 ± 0.064 |
| AMGSDDE | -0.338 ± 1.3 |
| ANALDCINDWDKSSQSCQGP | 0.812 ± 0.53 |

| Substance | amyloid nucleation score |
| --- | --- |
| ANLLINGFLSRSRDNYACYR | 1.56 ± 0.18 |
| ANRHRNRRSSSRDVFMFVIC | 3.02 ± 0.19 |
| ANRYRVLKE | 3.88 ± 0.095 |
| ANSYARCYNLVWKLV | -0.291 ± 0.66 |
| ANYFQSICQFDVDRIKLNSA | inactive |
| APLALSGRVCFWSWFCPLFV | 5.76 ± 0.084 |
| APMYDDLDATMVELEGP | 0.254 ± 1.2 |
| APNFLMCNRPGIF | 3.02 ± 0.086 |
| APNTEMGFEGLRELQVLPVV | -0.854 ± 1.1 |
| APRHDCMSSDLQVVKMDFLL | 0.799 ± 0.41 |
| ARAGWRSYYRGHLCSESANE | 0.273 ± 0.65 |
| ARFMSLTRSSACETNVGVYL | 0.608 ± 0.32 |
| ARTMKDYPLRTYVYYAPAGY | 0.453 ± 0.75 |
| ARWGFTWVKA | 0.372 ± 1.4 |
| ARYYLLFAFDNNFCIGVVGS | 4.23 ± 0.099 |
| ASFYPKPS | 0.4 ± 1.1 |
| ASGLMLFIMPFRWGWNSVFT | 0.683 ± 0.42 |
| ASKKNIF | -0.304 ± 0.79 |
| ASNYR | 0.008 ± 0.88 |
| ASPVLFKWICPIYTS | 2.87 ± 0.15 |
| ASRILV | -0.552 ± 0.6 |
| ASTMFQIYVHPNYTISLMLK | 0.44 ± 0.28 |
| ASVVSCQQSYLRWQEIL | -0.316 ± 0.74 |
| ASVYQRWPSFYRRLFVFNVI | 0.358 ± 0.55 |
| ATQLAFSMILSAAVYFLKVV | -1.33 ± 1.7 |

| Substance | amyloid nucleation score |
| --- | --- |
| AVCIYRHRLVTGSWWLSIS | 0.359 ± 0.39 |
| AVFGRLMVVDVYVSRSALTS | 0.043 ± 0.94 |
| AVFLMFRYASFTYWM | 0.444 ± 1.2 |
| AVIFVVLKMSFSISECDDEW | inactive |
| AVRTAFLAAHM | -0.64 ± 0.98 |
| AVSLFAGDQFDDTTRSAQGI | -0.306 ± 0.74 |
| AVSVWYYSRVRGRG | 0.025 ± 0.46 |
| AVVHSRYRVSVCGDQDLSPL | -0.086 ± 0.41 |
| AVYMLSMCPFEYAYKRCVCG | -1.16 ± 1.7 |
| AWAVGFYPFCRMFRSLYNYW | 0.387 ± 0.98 |
| AWDYNKN | 5.69 ± 0.075 |
| AWNRYIFIPTLEFTVLCMWC | 6.139 ± 0.058 |
| AYASFDGDPEGRGFTSSKGD | inactive |
| AYAVVGAM | 0.604 ± 0.69 |
| AYFYNEKNCYSHGKYVPYSF | -0.797 ± 1.7 |
| AYICYLILFQSQRVW | -0.827 ± 1.7 |
| AYLVPGQYVSPSFRFLTKNE | 0.215 ± 0.68 |
| AYTCHYQGGGLVNLVDVGYG | 0.353 ± 0.69 |
| AYWGHITGKVKFMEAAPLDV | 1.63 ± 0.73 |
| CASWTCAEKAEHTMYMEDYP | 0.02 ± 0.36 |
| CCDSPSRRSRAKECRMKYSM | -1.32 ± 1.2 |
| CCHAYRFGWNASVLRCGICL | -0.444 ± 1.9 |
| CCLVLSFLCNMEDSRNGG | 6.363 ± 0.056 |
| CCNGRLIIGNSNGNESYLSK | -0.384 ± 0.37 |
| CCRGCPERLLSWGGSPRATE | -0.334 ± 0.39 |

| Substance | amyloid nucleation score |
| --- | --- |
| CCSPAPLSLVIIVATVGVAS | 2.04 ± 0.19 |
| CCVGRALCHNVVS | 0.594 ± 0.55 |
| CCVGWCFPACLLFST | 7.42 ± 0.079 |
| CCYNFYDSGANCHLFFVSFR | -0.817 ± 1.7 |
| CDLFDFCISSKCRFKFLGRM | -0.131 ± 0.9 |
| CDNLRCRGLGDWCAWQPLTS | 0.335 ± 0.65 |
| CDNQVSGLNGS | inactive |
| CDWYDQMREVGESYVALSYN | -0.386 ± 0.48 |
| CEAFADTSSSYRDFYLQHQL | -1.44 ± 1.2 |
| CELRTD | inactive |
| CELSDSVNGNTFNMN | 2.18 ± 0.49 |
| CFCFLRFYRLQPNAQLDSKS | 1.69 ± 0.31 |
| CFGASNSLLFVDSSAWGSSG | -0.242 ± 0.5 |
| CFIRLNNWLF | 1.59 ± 0.46 |
| CFNMYLDVFDRVCRM | 1.85 ± 0.13 |
| CFVFLFFVPLWSRNRGEYMY | -0.937 ± 0.68 |
| CFVGMMKRFR | 1.36 ± 0.4 |
| CFYFMECLV | -0.254 ± 0.59 |
| CGFSDNGTCKND | -0.059 ± 0.28 |
| CGGFGMIFYL | 3.03 ± 0.11 |
| CGNLVCCNIMTDKNGY | 7.886 ± 0.055 |
| CGRVDEFKALLYKILRDYNW | -0.141 ± 0.23 |
| CGYLCNGKSGERSGIFGAHQ | -0.088 ± 0.39 |
| CGYSKVPMPCALAECGGRPR | 0.054 ± 0.45 |
| CHELLALDLLSMRNS | 0.416 ± 0.55 |

| Substance | amyloid nucleation score |
| --- | --- |
| CHNVVLFVVTQSMCEVSGGW | inactive |
| CHVSLYRMDIGLQYRTGRIW | 0.645 ± 0.52 |
| CHYFMNTLIV | inactive |
| CIDFKSSGAGSTMSWNLVFN | -0.188 ± 0.48 |
| CIDYLRSDC | 1.2 ± 0.53 |
| CIFAYKCSIYERESL | 0.776 ± 0.49 |
| CIGWSNGAPRCNQGRQRDRG | 0.828 ± 0.66 |
| CIYSICYFCNS | 7.924 ± 0.043 |
| CKVQLSQDRAVECGVNHGVY | -0.01 ± 0.44 |
| CLCSYYKILVYSSLVLDNAY | 0.58 ± 0.45 |
| CLCVGDDGGADWNKVRVITS | 0.18 ± 0.61 |
| CLETRYL | 1.15 ± 0.54 |
| CLFLDWMPM | 0.548 ± 0.84 |
| CLFLLNVGLSLLIGLPRYMW | 0.552 ± 0.91 |
| CLFRCVVEPLVIGYTKCAS | inactive |
| CLFSRELTLSPLWDLVK | 1.79 ± 0.15 |
| CLGHLLLTESIPCSFCSYWM | 4.55 ± 0.075 |
| CLGNNSFGDLGI | 0.368 ± 0.34 |
| CLGVSSGRLKCYVNYYCDNW | 0.106 ± 0.51 |
| CLLSRLYMVSLFWS | 0.033 ± 0.43 |
| CLLVKLARLGDG | 0.536 ± 0.63 |
| CLPCVCIVNFTLGYDKGVV | 8.027 ± 0.048 |
| CLPLACLKTLSNDSVWLDCA | 0.402 ± 0.35 |
| CLPRSGLSINWTVSHNYRLI | 0.11 ± 0.25 |
| CLRLELDKF | 3.34 ± 0.12 |

| Substance | amyloid nucleation score |
| --- | --- |
| CLSRKSWFWHGRWESVSCHP | -0.018 ± 0.53 |
| CLSRLLVLKYLSTWSKKWVW | -0.115 ± 0.25 |
| CLSYIVVALVRCTDIYYP | 0.763 ± 0.42 |
| CLVKTSSVSTIWLVSCNTRT | 0.648 ± 0.55 |
| CLVVVISS | -0.369 ± 0.57 |
| CLVWLGNNFLDSLWGEGGRA | -0.291 ± 0.38 |
| CLWGILDEGRFGSWFNNFAS | 0.467 ± 0.9 |
| CLYWFLKEHFC | 1.06 ± 0.78 |
| CMDRSLMVNNTRPYGCLLEY | 6 ± 0.061 |
| CMMSNRTCQAQLVMMWEMW | inactive |
| CMNSMC | 0.066 ± 0.66 |
| CMSVETLTEMVYFKSYTL | 0.257 ± 0.42 |
| CNFLLATWRRLKYTSQYLKS | -0.073 ± 0.69 |
| CNFSQYMRVHHTSYLEPTDH | 3.22 ± 0.12 |
| CNICNPI | -0.585 ± 1.6 |
| CNNSSGRVVRLCSMDGGLLG | -0.021 ± 0.65 |
| CNTPSTCNCVIVRPSYPSQY | -0.088 ± 0.61 |
| CNVGLKVYLADISSGSVCYL | 4.39 ± 0.075 |
| CPGFFILVQCIVYMDTDCGF | 3.81 ± 0.095 |
| CPMEKSGVELDV | 0.094 ± 0.41 |
| CPNIEKPSLLST | -2.01 ± 2.4 |
| CPVGQTNCQDL | 0.072 ± 0.51 |
| CPWRNRII | 0.684 ± 0.6 |
| CQSFIGTDTKFVIPDMVLAA | inactive |
| CQVPSGESNDSPVLRHI | -0.138 ± 0.43 |

| Substance | amyloid nucleation score |
| --- | --- |
| CQVVLISWTGSHKGNLEHNA | 1.08 ± 0.3 |
| CQYMFHIWQLIANHVI | 0.799 ± 0.43 |
| CRDNCCPLVVYW | 0.531 ± 0.33 |
| CRDRRS | 1.91 ± 0.35 |
| CRFMNVRYGKRMKVDNTVMA | -0.891 ± 1.4 |
| CRFPCSCHRWSMIRSVVCKR | 0.03 ± 0.97 |
| CRLSTS | -0.966 ± 0.42 |
| CRSSGADSRLLNIVKPCTLP | -0.616 ± 0.33 |
| CRTVAHFRP | 0.481 ± 0.61 |
| CSAKNLYVTTQFSLVLFVGS | 6.422 ± 0.052 |
| CSDKKLGEWSASWNCNRDRM | -0.171 ± 1.7 |
| CSGNI | -1.32 ± 1.7 |
| CSIVYCMCGLCAS | 8.43 ± 0.055 |
| CSNRWYVNMFVHWIFVHLGS | 1.47 ± 0.53 |
| CSPLVGMTGAMLTVRGSISR | 0.019 ± 1 |
| CSRNTSVA | 1.01 ± 0.57 |
| CSRRFYESPCKEPAA | 0.145 ± 0.43 |
| CSTQRVPGGGLGKSWL | 0.18 ± 1.2 |
| CSTRLSSKFSDTIYVEVFSF | inactive |
| CSTTLEVTVGMAVVMLLQGI | 2.66 ± 0.086 |
| CSWVTPNGRVLHCLTNLYYY | 0.297 ± 0.59 |
| CSYPHIDIAPRSACPTWTQD | 0.432 ± 0.72 |
